Consider 83 variants from the RNAGym collection of RNA variant scans (doi:10.1093/molbev/msab373).

First the molecules themselves.
B1: Azoarcus group I ribozyme (parent)
chain: GUGCCUUGCGCCGGGAAACCACGCAAGGGAUGGUGUCAAAUUCGGCGAAACCUAAGCGCCCGCCCGGGCGUAUGGCAACGCCGAGCCAAGCUUCGGCGCCUGCGCCGAUGAAGGUGUAGAGACUAGACGGCACCCACCUAAGGCAAACGCUAUGGUGAAGGCAUAGUCCAGGGAGUGGCGAAAGUCACACAAACCGG

The variants in the data set derive from B1. Put plainly: reverse-splicing fitness (ratio to wild type); higher = more active; in vitro selection; Mg2+ level not given. In short, it runs like this:
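An in vitro group I ribozyme library with randomized positions was T7-transcribed and gel-purified. In triplicate, 10 pmol RNA in EPPS pH 7.5 was reacted with 50 pmoles of a 30-nt RNA substrate for 1 h at 37 °C across several added MgCl2 levels (1–48 mM), then stopped with EDTA. Products were reverse transcribed from a substrate-complementary primer, PCR-amplified and sequenced (HiSeq 4000). Fitness is a variant's read proportion after selection over that before, normalised to wild type.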
As for A111G A120G A145U C150G C169G U176C, the reverse-splicing fitness is 0.00471.
For the variant A111G A120G A145U C150G C169G U176A, the reverse-splicing fitness is 0.00768.
Consider A111G A120G A145U C150G C169G U176G, for which the reverse-splicing fitness stood at 0.00457.
As for A111G A120G A145G C150U C169G U176C, the reverse-splicing fitness is 0.078.
As to A111G A120G A145G C150U C169G U176G, the reverse-splicing fitness turned out to be 0.00563.
Turning to A111G A120G A145G C150U C169G U176A, the reverse-splicing fitness stood at 0.0549.
Regarding A111G A120G A145G C150U C169U, the reverse-splicing fitness came to 0.2.
The same measure for A111G A120G A145G C150U C169A: 0.131; for A111G A120G A145G C150U C169G: 0.255.
As to A111G A120G A145C C150A, the reverse-splicing fitness came out at 0.0175.
The same measure for A111G A120G A145C C150G: 0.036; for A111G A120G A145C C150U: 0.0745.
Turning to A111G A120G A145G C169U U176A, the reverse-splicing fitness was 0.0849.
In the case of A111G A120G A145G C169U U176G, the reverse-splicing fitness was found to be 0.00896.
Under A111G A120G A145G C169U U176C stands 0.0954.
On to A111G A120G A145U C150U C169G U176A, for which the reverse-splicing fitness came to 0.0574.
The same measure for A111G A120G A145U C150U C169G U176C: 0.0783; for A111G A120G A145U C150U C169G U176G: 0.00556.
In the case of A111G A120C C150A C169G U176G, the reverse-splicing fitness stood at 0.00513.
As to A111G A120C C150A C169G U176A, the reverse-splicing fitness was 0.0214.
On to A111G A120C C150A C169G U176C, for which the reverse-splicing fitness turned out to be 0.0196.
With A111G A120G A145G C150U U176A, the reverse-splicing fitness came out at 0.0693.
Consider A111G A120G A145G C150U U176G, for which the reverse-splicing fitness came out at 0.00986.
On to A111G A120G A145G C150U U176C, for which the reverse-splicing fitness amounted to 0.0905.
With A111G A120C C150G C169G U176C, the reverse-splicing fitness is 0.00358.
As for A111G A120C C150G C169G U176A, the reverse-splicing fitness came out at 0.00631.
In the case of A111G A120C C150G C169G U176G, the reverse-splicing fitness was 0.00385.
Consider A111G A120C C150U U176G, for which the reverse-splicing fitness stood at 0.0682.
On to A111G A120C C150U U176A, for which the reverse-splicing fitness was 0.314.
Consider A111G A120C C150U U176C, for which the reverse-splicing fitness amounted to 0.337.
A111G A120C A145U C150G U176C: the reverse-splicing fitness worked out at 0.0545.
Turning to A111G A120C A145U C150G U176A, the reverse-splicing fitness is 0.0189.
With A111G A120C A145U C150G U176G, the reverse-splicing fitness amounted to 0.00444.
Consider A111G A120G A145U C150U C169U U176A, for which the reverse-splicing fitness amounted to 0.0647.
With A111G A120G A145U C150U C169U U176G, the reverse-splicing fitness amounted to 0.00675.
For A111G A120G A145U C150U C169U U176C, the reverse-splicing fitness was determined as 0.0675.
Take A111G A120G A145C C150G U176C: the reverse-splicing fitness was found to be 0.0228.
Under A111G A120G A145C C150G U176G stands 0.00289.
Take A111G A120G A145C C150G U176A: the reverse-splicing fitness amounted to 0.014.
On to A111G A120G A145U C150G C169A U176G, for which the reverse-splicing fitness was 0.00435.
For the variant A111G A120G A145U C150G C169A U176A, the reverse-splicing fitness stood at 0.0101.
The same measure for A111G A120G A145U C150G C169A U176C: 0.0123; for A111G A120C A145G C150U C169U: 0.224.
Under A111G A120G A145C C169A U176C stands 0.0567; under A111G A120G A145C C169A U176A, 0.0345.
Regarding A111G A120G A145C C169A U176G, the reverse-splicing fitness amounted to 0.00382.
In the case of A111G A120G A145U C150G C169U U176A, the reverse-splicing fitness is 0.0148.
As for A111G A120G A145U C150G C169U U176C, the reverse-splicing fitness was determined as 0.0171.
For A111G A120G A145U C150G C169U U176G, the reverse-splicing fitness amounted to 0.00442.
Regarding A111G A120G A145U C150A, the reverse-splicing fitness was found to be 0.0301.
Consider A111G A120G A145U C150U, for which the reverse-splicing fitness was 0.19.
For the variant A111G A120G A145U C150G, the reverse-splicing fitness was found to be 0.0319.
Take A111G A120C C150G U176A: the reverse-splicing fitness came to 0.0119.
In the case of A111G A120C C150G U176G, the reverse-splicing fitness amounted to 0.00371.
In the case of A111G A120C C150G U176C, the reverse-splicing fitness was 0.036.
With A111G A120G A145U C150A C169G U176G, the reverse-splicing fitness worked out at 0.00424.
For the variant A111G A120G A145U C150A C169G U176C, the reverse-splicing fitness is 0.0243.
Under A111G A120G A145U C150A C169G U176A stands 0.0201.
In the case of A111G A120G A145U C169A U176C, the reverse-splicing fitness amounted to 0.0642.
Turning to A111G A120G A145U C169A U176G, the reverse-splicing fitness was 0.00646.
Take A111G A120G A145U C169A U176A: the reverse-splicing fitness amounted to 0.0397.
With A111G A120G A145C, the reverse-splicing fitness was 0.266.
Under A111G A120G A145U stands 0.274.
As to A111G A120G A145G, the reverse-splicing fitness was determined as 0.285.
Consider A111G A120G A145G C150A C169A U176C, for which the reverse-splicing fitness was 0.0283.
Take A111G A120G A145G C150A C169A U176A: the reverse-splicing fitness turned out to be 0.0193.
For A111G A120G A145G C150A C169A U176G, the reverse-splicing fitness worked out at 0.00569.
As to A111G A120G A145C C169U U176G, the reverse-splicing fitness turned out to be 0.00876.
For the variant A111G A120G A145C C169U U176A, the reverse-splicing fitness stood at 0.0733.
For the variant A111G A120G A145C C169U U176C, the reverse-splicing fitness was determined as 0.0829.
A111G A120G A145C C150G C169A U176C: the reverse-splicing fitness is 0.00969.
Under A111G A120G A145C C150G C169A U176A stands 0.00837; under A111G A120G A145C C150G C169A U176G, 0.00453; under A111G A120G A145G C150A C169G U176G, 0.00578.
Consider A111G A120G A145G C150A C169G U176C, for which the reverse-splicing fitness was determined as 0.0371.
With A111G A120G A145G C150A C169G U176A, the reverse-splicing fitness was found to be 0.0262.
Consider A111G A120C C169A, for which the reverse-splicing fitness came to 0.0146.
As to A111G A120C C169G, the reverse-splicing fitness was found to be 0.0129.
A111G A120C C169U: the reverse-splicing fitness was 0.271.
Regarding A111G A120G A145G C169U, the reverse-splicing fitness stood at 0.252.
For the variant A111G A120G A145G C169G, the reverse-splicing fitness was 0.329.
The same measure for A111G A120G A145G C169A: 0.188.
In the case of A111G A120C A145G C169G, the reverse-splicing fitness came to 0.0121.
